Data set [1] addresses NCAM Ig2 domain, recombinant, produced in Pichia pastoris (rat) (UniProt P13596). As to the kind of experiment: NMR titration, 14 points, 15N-labelled domain-2 (1.0 mM) titrated with unlabelled domain-1, chemical shifts of 10 residues fitted.
The target in data set [2] is NCAM on cells (primary hippocampal neurones; NCAM-140 on transfected fibroblasts) (rat) (UniProt P13596). The experiment in a line: cell-based or functional assay.
Data set [3] deals with the molecule itself. The experiment in a line: gel filtration chromatography, self-association. (In general: SEC sorts molecules by how far they enter the pores of the column.)

Numbering of substitutions follows the chain as printed. In names and notes the source's numbering stands.

What is called Kd is a measure of binding affinity in units of concentration. On to “NCAM Ig1 domain, recombinant, produced in Pichia pastoris (Ig1 PP) (from UniProt P13596 20-116) (receptor)”, for which the Kd in data set [1] is 2.5 mM. “NCAM Ig2 domain, recombinant, produced in Pichia pastoris (from UniProt P13596 117-208) (ligand)” yielded a concentration of maximal neuritogenic effect, primary hippocampal neurones on fibronectin in data set [2] of 0.54 µM.

B1: NCAM (20-208) with three mutations in the domain-1 E30A, E35A, K37A (receptor, UniProt P13596 20-208, looked up)
chain: LQVDIVPSQGAISVGASAFFLCQVAGDAKDKDISWFSPNGEKLSPNQQRISVVWNDDDSSTLTIYNANIDDAGIYKCVVTAEDGTQSEATVNVKIFQKLMFKNAPTPQEFKEGEDAVIVCDVVSSLPPTIIWKHKGRDVILKKDVRFIVLSNNYLQIRGIKKTDEGTYRCEGRILARGEINFKDIQVIV
notes: Species as for m28; also called first mutant
As for B1, the binding result in data set [3] is “no binding”.

B2: NCAM (20-208) with three mutations in the domain-2 R192A, R196A, E198A (receptor, UniProt P13596 20-208, looked up)
chain: B1 chain with A11E, A16E, A18K, R173A, R177A, E179A
notes: Species as for m28; also called second mutant; mutated double domain
Take B2: the binding result in data set [3] is on record as “no binding”.

B3: NCAM (20-208) with three mutations in the domain-1 E30A, E35A, K37A and three mutations in the domain-2 R192A, R196A, E198A (receptor, UniProt P13596 20-208, looked up)
chain: B1 chain with R173A, R177A, E179A
notes: Species as for m28; also called third mutant
B3: the binding result in data set [3] is given as “no binding”.

Values taken from patent US6887844 (dated 2005).
